Source: US20220073643A1

target: Claudin18.2-His protein (human); test: indirect ELISA on coated Claudin18.2-His

Row | EC50 | Binder
1 | 0.0113 µg/mL | 263E9F3 (antibody, V domains shown) VH: EIQVQQSGPELMKPGASVKISCRSSGYSFTSYYIHWVKQSRGKSLEWIGYIDPFSGGTRYNQKFEGKATLTVDKSSTTAYMHLSSLTSEDSAVYYCASLRFFAYWGQGTLVTVSA VL: DIVMTQSPSSLTVTAGEKVTMTCKSSQSLLNSGNQENYLTWYQQKPGQPPELLISRASTRQSGVPDRFTGSGSGTDFTLTISSVQTEDLAVYYCQNDYSYPLTFGAGTKLELK
2 | 0.028 µg/mL | 275B2G2 (antibody, V domains shown) VH: EVMLVESGGGLVKPGGSLKLSCAASGFTFRDYTMSWVRQTPEKRLEWVATSIIGGTYTYYPDSVKGRFTISRDNVKNTLYLQMSSLRSEDTAMYYCSRLGRGNAMDYWGQGTSVTVSS VL: DIVMTQSPSSLTVTAGEKVTMSCKSSQSLLNSGNQKNYLTWYQQKPGQPPKLLIYWASTRESGVPDRFTGSGSGTDFTLTISSVQAEDLAVYYCQNDYSYPFTFGSGTKLEIK
3 | 0.0153 µg/mL | 392C2F10 (antibody, V domains shown) VH: EVQLQQSGPELVKPGASMKISCKASGYSFTGYTMNWVKQSLGKNLEWIGLINPFNGGTTYNQKFKGKATLTVDKSSSTAYMELLSLTSDDSAVYYCTRGDYWGQGTTLTVSS VL: DIVMTQSPSSLTVTAGEKVTMSCKSSQSLLNSGNQKNYLTWYQQKPGQPPKLLIYWASTRESGVPDRFAGSGSGTDFTLTISSVQAEDLAVYYCQSDYSYPTFGAGTKLELK
4 | 0.014 µg/mL | 262H9H6 (antibody, V domains shown) VH: QAYLQQSGAELVRSGASVKMSCKASGYTFTSHNMHWVKQTPGQGLEWIGYISPGNGYTNYNQKFRGKATLTADTSSSTAYMQISSLTSEDSAVYFCTRDYYGNSFTYWGQGTLVTVSA VL: DIVMTQSPSSLTEKAGERVSMSCKSSQSLFNSGNQKNYLTWYQQKPGQPPKLLIYWASTRESGVPDRFTGSGSGTEFTLTISSVQAEDLAVYYCQNNYWFPFTFGAGTKLELK
5 | 0.00822 µg/mL | 267H5F12 (antibody, V domains shown) VH: QAYLQQSGAELVRSGASVKMSCKASGYTFTSHNMHWVKQTPGQGLEWIGYISPGNGYTNYNQKFRGKATLTADTSSSTAYMQISSLTSEDSAVYFCTRDYYGNSFTYWGQGTLVTVSA VL: DIVMTQSPSSLTEKAGERVSMSCKSSQSLFNSGNQKNYLTWYQQKPGQPPKLLIYWASTRESGVPDRFTGSGSGTEFTLTISSVQAEDLAVYYCQNNYWFPFTFGAGTKLELK
6 | 0.0158 µg/mL | 277F1F8 (antibody, V domains shown) VH: QAYLQQSGPELVRSGASVKMSCKASGYTFTSHNMHWVKQTPGQGLEWIGYINPGNGGNNYNQKFKGKATLTADTSSSTAYMQISSLTSEDSAVYFCARDYYGNSFAFWGQGTLVTVSA VL: DIVMTQSPSSLTETAGEKVSMSCKSSQSLLNSGNQKNYLTWYQQKPGQPPKLLIYWASTRESGVPDRFTGSGSGTDFTLTISSVQAEDLAVYYCQNDYRFPFTFGAGTKLELK
7 | 0.012 µg/mL | 280F3B6 (antibody, V domains shown) VH: QAYLQQSGAELVRSGASVKMSCKASGYTFTSHNMHWVKQTPGQGLEWIGYIYPGNGGTNYNQKFKGKATLTADTSSSTAYMQISSLTSEDSAVYFCTRDYYGNSFAYWGQGTLVTVSA VL: DIVMTQSPSSLTEKAGERVSMSCKSSQSLFNSGNQKNYLTWYQQKPGQPPKLLIYWASTRESGVPDRFTGSGSGTDFTLTISSVQAEDLAVYYCQNDYWYPFTFGAGTKLELK
8 | 0.0245 µg/mL | 275H9A2 (antibody, V domains shown) VH: QAYLQQSGAELVRSGASVKMSCRASGYSFTSHNMHWVKQTPGQGLEWIGYIYPGNGGSYYNQKFKGKAILTADTSSSTAYMQISSLTSEDSAVYFCTRDYYGNSFVYWGQGTLVTVSA VL: DVVMTQSPSSLTEKTGEKVSMSCKSSQSLLNSGNQKNYLTWYQQKPGQPPKLLIYWASTRESGVPDRFTGSGSGTDFTLTISSLQTEDLAVYYCQNNFRYPFTFGAGTKLELK
9 | 0.0201 µg/mL | 279E8B8 (antibody, V domains shown) VH: QAYLQQSGAELVRSGASVKISCKASGYTFASHNMHWVKQTPGQGLEWIGYIYPGNGGTKYNQKFTGKATLSADTSSSTAYLQISSLTSEDSAVYFCARDYFGNSFVYWGQGTLVTVSA VL: DIVMTQSPSSLTEKAGEKVSMRCKSSQSLLNSGNQKNYLTWYQQKPGQPPKLLIYWASTRESGVPDRFTGSGSGTDFTLTISSVQADDLAVYYCQNDYMYPFTFGAGTKLELK
10 | 0.0183 µg/mL | 265E6G2 (antibody, V domains shown) VH: QAYLQQSGAELVRSGASVKMSCKASGYTFTSYNMHWVKQTPGQGLEWIGYIYPGNGGTNYNQKFKGKATLTADTSSSTAYMQISSLTSEDSAVYFCARDYYGNSFAYWGQGTLVTVSA VL: DLVMTQSPSSLTVTAGEKVTMSCKSSQSLLNSGNQKNYLTWYQQKPGQPPKLLIYWASTRESGVPDRFTGSGSGTDFTLTISNIQAEDLAVYYCQNDYSYPLPFGAGTKLELR
11 | 0.0156 µg/mL | 370E2B12C3 (antibody, V domains shown) VH: QVQLKESGPGLVAPSQSLSITCTVSGFSLTTYGVHWVRQPPGKGLEWLGVIWAGGSTNYNSALMSRVSINKDNSKSQVFIKMNSLQADDTALYYCARAAYYGNGLDYWGQGTTLTVSS VL: DIVMTQSPSSLTVTAGEKVTMSCKSSQTLLNSGNQKNYLTWYQQKPGQPPKLLIYWASTGESGVPDRFTGSGSGTDFTLTISSVQAEDLAVYFCQNAYFYPFTFGGGTKLEIK
12 | 0.0504 µg/mL | 393C2C5 (antibody, V domains shown) VH: DVQLVESGGGLVQPGGSRKLSCAASGFTFSSFGMHWVRQAPEKGLEWVAYISSGSSPIYYADTVKGRFTISRDNPKNTLFLQMTSLRSEDTAMYFCATFYYGNSFAYWGQGTLVTVSA VL: DIVMTQSPSSLTVTAGEKVTMSCKSSQTLLNSGNQKNYLTWYQQKSGQPPKLLIYWASTRESGVPDRFTGSGSGTDFTLTISSVQAEDLAVYYCQNAYSYPVTFGSGTKVELK
13 | 0.0168 µg/mL | 266B11F7 (antibody, V domains shown) VH: QVQMKESGPGLVAPSQSLSITCTVSGFSLTTYGVTWVRQPPGKGLEWLGVIWGDGSTNYHSALTSRLRISKDKSKSQVFLKLSSLQTDDTATYYCAKPGRGNALDYWGQGTSVTVSS VL: DIVMTQSPSSLTVTAGEKVTMRCKSSQSLLNSGNQKNYLTWYQQKPGQPPKLLVYWASTRESGVPDRFTGSGSGTDFTLTVSSVQAEDLAVYYCQNDYIFPLTFGAGTKLELK
14 | 0.00836 µg/mL | 391F1G2 (antibody, V domains shown) VH: DVQLVESGGGLVQPGGSRKLSCAASGFTFSSFGMHWVRQAPEKGLEWVAYISSGSSPIYYADTVKGRFTISRDNPKNTLFLQMTSLRSEDTAMYFCARIYYGNSFAYWGQGTLVTVSA VL: DIVMTQSPSSLTVTAGEKVAMSCKSSQTLLNSGNQKNYLTWYQQKPGQPPKLLLYWASTRESGVPDRFTGSGSGTDFTLTISSVQAEDLAVYYCQNAYYYPLTFGSGTKLELK
15 | 0.0162 µg/mL | 391H11H3 (antibody, V domains shown) VH: DVQLVESGGGLVQPGGSRKLSCAASGFTFSGFGMHWIRQTPEKGLEWVAYISSGSRPIYYADTVQGRFTISRDNPKNTLFLQMTSLRSEDTAMYFCARFYYGNSFDHWGQGTLVTVSS VL: DIVMTQSPSFLTVTAGEKVTMSCKSSQSLLNSGNQKNYLTWYQQKPGQPPKLLIYWASTRESGVPDRFTGSGSGTDFTLTISSVQAEDLALYYCQNAYSFPLTFGAGTKLELK
16 | 0.0192 µg/mL | 196A12B10 (antibody, V domains shown) VH: QIQWVQSGPELKKPRETVKISCKASGYTFTDYSMHWVKQAPGKGLKWMGWINSETGEATYADDFRGRFALSLETSATTAFLQINSLKNEDTGTYFCARFYYGNSFASWGQGTTLTVSS VL: DIVMTQFPSSLTVTAGEKVTMTCKSSQSLLNGGNQKNYLTWYQQKPGLPPKLLIYWASTRESGVPDRFTGSGSGTEFTLTISSVQAEDLAVYYCQNNYYFPLTFGAGTKLELK
17 | 0.0201 µg/mL | 273C10E5 (antibody, V domains shown) VH: QVQLQQSGAELVKPGASVKLSCKASGYTFTSFGINWLRQRPEQGLEWIGWIFPGDGNSKYNENFKGKATLTTDKSSSTAYMQVTRLTSEDSAVYFCARFYYGNSFANWGQGTLVTVSA VL: DIVMTQSPSSLTVTAGEKVTMSCKSSQSLLNSGNQKNYLTWYQQKPGQPPKLLIYWAATRESGVPDRFAGSGSGTDFTLTISSVQAEDLAVYYCQNDYFYPFTFGAGTKLELK
18 | 0.0113 µg/mL | 267B2C5 (antibody, V domains shown) VH: QVQLKESGPGLVAPSQSLAITCTVSGFSLTTYGVSWVRQPPGKGLEWLGVIWGDGSTHYHSALISRLSIRKDNSKSQVFLKVNSLQTDDTATYYCGKPGRGNAMDYWGQGTSVTVSS VL: DIVMTQSPSSLTVTAGEKVTMSCKSSQSLLNSGNQKNYLTWYQQKPGQSPKLLIYWASTRESGVPDRFTGSGSGTDFTLTISSVQAEDLAVYYCQNDYIYPLTFGGGTTLELK
19 | 0.0233 µg/mL | 273F3D4 (antibody, V domains shown) VH: QVQLKESGPGLVAPSQSLSITCTVSGFALTTYGVSWVRQPPGKGLEWLGVIWGDGSTHYHSALISRLSIRKDNSKSQVFLKLNSLQTDDTATYYCAKPGRGNAMDYWGQGTSVTVSS VL: DIVMSQSPSSLTVTAGEKVTMSCKSSQSLLNSGNQKNYLTWYQQKPGQSPKLLIYWASTRESGVPDRFTGSGSGTDFTLTISSMQAEDLAVYYCQNDYIYPLTFGAGTMLELK
20 | 0.021 µg/mL | 392A11C8 (antibody, V domains shown) VH: DVQLVESGGGLVQPGGSRKLSCAASGFTFSGFGMHWIRQTPEKGLEWVAYISSGSRPIYYADTVKGRFTISRDNPKNTLFLQMTSLRSEDTAMYFCARFYYGNSFDHWGQGTLVTVSA VL: DIVMTQSPSFLTVTAGEKVTMSCRSSQSLLNSGNQKNYLTWYQQKPGQPPKLLIYWASTRESGVPDRFTGSGSGTDFTLTISSVQAEDLALYYCQNAYSFPLTFGAGTKLELK
21 | 0.0232 µg/mL | 292D9C7 (antibody, V domains shown) VH: QVQLKESGPGLVAPSQSLSITCTVSGFSLTDYGVSWIRQPPGKGLEWLGVIWGGGNAYYNSALKSRLSISKDNSKSQVFLKMNSLRTDDTAMYYCAKNGLLRYLDYWGQGSTLTVSS VL: DTVMTQSPSSLTVTAGEKVTMSCKSSQSLLNSGNQKNYLTWYQQKPGQPPKLLIYWASTRESGVPDRFTGSGSGRDFTLTISSVQVEDLAIYYCQNDYYYPLTFGAGTKVELK
22 | 0.0155 µg/mL | 286C7F11 (antibody, V domains shown) VH: QVQLKESGPGLVAPSQSLSITCTVSGFSLTDYGVSWIRQPPGKGLEWLGVIWNRGNTYYNSALKSRLSISKDNSKSQVFLRMNSLQTDDTAMYYCAKHDFLRFLDYWGQGTTLTVSS VL: DVVMTQSPSSLTVTAGEKVTMSCKSSQSLLNSGNQKNYLTWYQQKPGQPPKILIYWASTRESGVPDRFTGSGSGTDFSLTITSVQAEDLAVYYCLNDYYYPLTFGAGTKLELK
